Test results as given in the supplement of paper PMC12042874.
± gives the uncertainty stated by the source.

Assay: amyloid nucleation score (Sup35N fusion, yeast selection) (log enrichment); library NNK1; higher = more nucleation; inactive = no reads after selection
How it was run: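 Output and input plasmid inserts were sequenced by Illumina after psi-negative yeast carrying Sup35N fused to peptides of 20 random codons had been induced 24 hours with 100 μM copper sulfate and grown 7 days at 30°C on medium lacking adenine and uracil. The nucleation score is the DiMSum log enrichment of output over input reads, centred on the mode score of non-aggregating sequences. Sequences with under 100 input reads were excluded.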

Substance	amyloid nucleation score
ILYCLNLVIHLCQRYSLILR	1.97 ± 0.56
IMARCIVFKPG	0.136 ± 0.75
IMCPMWWLVLYNSSVQRYAE	6.11 ± 0.07
IMFLRLFKGLCMKYSVRRDC	-0.512 ± 0.4
IMKYPETGLAGRLLTGYTLS	0.633 ± 0.61
IMLLLREKLASIRMMQECQL	inactive
IMLTGLRLHVVDGEKLPMTS	1.01 ± 0.71
IMLVYMKTLGTM	3.7 ± 0.071
IMSKRTWWLRPRGPTACFQW	0.208 ± 0.44
IMSSL	-0.507 ± 0.73
IMTESCCG	0.743 ± 0.54
IMTSWFLPQSCQNDWDKLY	-0.012 ± 0.2
IMWSKENWDGG	-0.649 ± 0.44
IMYCLFGHLFLLRIGGFIMG	0.101 ± 0.68
INFRHA	2.57 ± 0.33
INGMEYLEQKIEVL	0.091 ± 0.42
INGRTGILRRVGN	-1.28 ± 0.75
INHVMHGMEVRRGVNGRWMY	0.312 ± 1.1
ININRNK	inactive
INLGFLWTCARDAVFLYDLS	2.31 ± 0.17
INLGVMWGVPTELLVCNF	inactive
INLYVNISRFIPCV	0.027 ± 0.53

Substance	amyloid nucleation score
INMRKLPSRVSSFKVKCGHR	-0.42 ± 1.7
INQKSMMSSSDWRRWYFSGR	inactive
INYFRWGDIFVYSNSKSSRL	0.511 ± 0.17
IPARTESDTRYMSMCGSNNQ	-0.317 ± 0.55
IPCDFDRISSSVFAKCNYSI	-0.455 ± 0.24
IPDVEGQGG	0.469 ± 0.72
IPRYCRRNMADSAIV	0.923 ± 0.62
IPSGTVF	0.34 ± 0.9
IQSPC	-0.171 ± 0.23
IQSSPIR	0.464 ± 0.88
IRDTLNVCNKEEQKSRGS	-0.358 ± 0.37
IRGFSSSISLWWVDGTVANV	-0.422 ± 0.49
IRSAN	0.918 ± 1.1
IRSQKCCFLHRWFLACFRII	-0.624 ± 1.1
IRVSFCWSNLHNNYNSGRAT	5.02 ± 0.085
IRYCFCKIK	0.312 ± 1.1
IRYLWHVLMVRFEESRWSLY	-0.061 ± 0.36
IRYYVVSSVVDSNS	-0.142 ± 0.31
ISCCVKLRFGLCKSWNFMNQ	-1.19 ± 1.4
ISCSVKILRCLTCMLFSSVV	-0.8 ± 1.3
ISCTTFACTTRLKIRAAS	0.434 ± 0.56
ISECDICERR	-0.236 ± 0.68

Substance	amyloid nucleation score
ISEGVIRDMSNRVRGSMQEI	-0.175 ± 1.2
ISGFMLQVLTRRYSWMSA	-0.498 ± 0.88
ISGYQS	0.088 ± 0.64
ISIIVVKFDMLLSNHHNSDA	0.486 ± 0.58
ISKNLNRMHILVLYMVGMRF	0.259 ± 0.88
ISLPLTPN	-0.492 ± 0.36
ISLRYFPNYISFHKLGFRSA	0.523 ± 0.39
ISNCYQVKALFVSHFLIRDR	4.29 ± 0.047
ISPYPPRHLLQWVCKGE	0.034 ± 0.68
ISQKNDAMNYYIGMSQM	1.52 ± 0.34
ISRADVWVWFLLSMSRREYF	0.268 ± 0.55
ITKNRPARNRLLRTGMYFLL	0.004 ± 0.29
ITKSRLWHDWLTRRVMTTDC	-0.241 ± 1.4
ITVGEYVNHCSG	0.224 ± 1.4
IVAVDFGLFRMRTIPRAAVS	-0.144 ± 1.6
IVDVVLSMGLLYLTSVNY	-0.369 ± 0.74
IVLMLCV	-0.097 ± 0.36
IVMFVGFCGENKLAWDSRRK	5.03 ± 0.05
IVNAGICPGNSRYSGNGATR	-0.162 ± 0.53
IVNNIVCSAGVDPFSQHCMD	1.84 ± 0.67
IVRVLCSLLIQFKVNAY	inactive
IVVFFAPDFCGRQLYDKSKS	4.85 ± 0.11

Substance	amyloid nucleation score
IVWVDLNRIGSCAGLGINYY	0.18 ± 0.41
IWCNMSFNIRV	4.4 ± 0.088
IWIMWGYRSLDTMLHS	0.047 ± 0.77
IWLRS	0.779 ± 0.62
IYCVGDFVP	-0.026 ± 0.35
IYEILKVTS	inactive
IYFHLGGCI	-0.376 ± 0.42
IYFQVSRLMSVRRAMKSPKP	-0.666 ± 1.4
IYLCCADFARIVMVTSTRWL	0.052 ± 0.5
IYLLLCLENRVDMLE	inactive
IYPILVMSASQA	0.549 ± 0.69
IYSARFIGVRPNYYCMDARP	-0.85 ± 0.88
IYTSLCQRGGMVMHESKYCC	0.624 ± 0.65
IYVYWSDISV	0.907 ± 0.42
KAFWSLCYVERGRWYGAVNA	0.128 ± 1
KAHRWDGRIFN	-1.27 ± 0.55
KAKTFI	0.268 ± 1.2
KALVADC	0.001 ± 0.34
KAVRMSNFD	0.223 ± 0.71
KCMFVESKSRDNCVMSNES	-0.055 ± 0.9
KCRGCSMMRAS	1.84 ± 0.5
KCSSLLSHMWLCITLVTVLA	0.357 ± 0.57
